The source of these data is patent US20260063625A1, “COMPOSITIONS FOR AND METHODS OF DETECTING FOOD TOXINS” (priority 2022, published 2026).

Data set [1] is described as follows: Fluorescence polarization (FP) binding to fluorescein labeled STX. To be noted: T = 298K; for […]G (kcal mol^−1) relative to wild-type RcSxph: […]G = RT ln (KdSxph mutant/KdSxph).
The test system of another data set is PtNaV1.4. The experiment in a line: Two-electrode voltage clamp: Sxph rescue of PtNaV1.4 from STX block in Xenopus oocytes. The settings on record: [Sxph]:[STX] ratio, 100 nM STX. The data set is classed as cell-based, Phyllobates terribilis.
Data set [2] is classed as binding. The settings on record: 1.1 μM Sxph, 0-20 μM STX.
Data set [3] in a line: Isothermal titration calorimetry (ITC) of STX into Sxph. The data set is classed as binding. The settings on record: 25° C. As to the method: ITC measurements were performed at 25° C. using a MicroCal PEAQ-ITC calorimeter (Malvern Panalytical). […]. This STX stock was diluted with the SEC buffer to prepare 100 μM or 300 μM STX solutions having a final buffer composition of 135 mM NaCl, 9 mM HEPES, pH 7.4. […]. The calorimetric experiment settings were: reference power, 5 μcal/s; spacing between injections, 150 s; stir speed 750 rpm; and feedback mode, high. Data were analyzed using MicroCal PEAQ-ITC Analysis Software (Malvern Panalytical) using a single binding site model. The heat of dilution from titrations of 100 μM STX in 135 mM NaCl, 9 mM HEPES, pH 7.4 into 135 mM NaCl, 9 mM HEPES, pH 7.4 was subtracted from each experiment to correct the baseline.

B1: RcSxph: Saxiphilin of Rana (Lithobates) catesbeianus, American bullfrog, SEQ ID NO:1 (protein)
chain: MAPTFQTALFFTIISLSFAAPNAKQVRWCAISDLEQKKCNDLVGSCNVPDITLVCVLRSSTEDCMTAIKDGQADAMFLDSGEVYEASKDPYNLKPIIAEPYSSNRDLQKCLKERQQALAKKMIGHYIPQCDEKGNYQPQQCHGSTGHCWCVNAMGEKISGTNTPPGQTRATCERHELPKCLKERQVALGGDEKVLGRFVPQCDEKGNYEPQQFHGSTGYSWCVNAIGEEIAGTKTPPGKIPATCQKHDLVTTCHYAVAMVKKSSAFQFNQLKGKRSCHSGVSKTDGWKALVTVLVEKKLLSWDGPAKESIQRAMSKFFSVSCIPGATQTNLCKQCKGEEGKNCKNSHDEPYYGNYGAFRCLKEDMGDVAFLRSTALSDEHSEVYELLCPDNTRKPLNKYKECNLGTVPAGTVVTRKISDKTEDINNFLMEAQKRQCKLFSSAHGKDLMFDDSTLQLALLSSEVDAFLYLGVKLFHAMKALTGDAHLPSKNKVRWCTINKLEKMKCDDWSAVSGGAIACTEASCPKGCVKQILKGEADAVKLEVQYMYEALMCGLLPAVEEYHNKDDFGPCKTPGSPYTDFGTLRAVALVKKSNKDINWNNIKGKKSCHTGVGDIAGWVIPVSLIRRQNDNSDIDSFFGESCAPGSDTKSNLCKLCIGDPKNSAANTKCSLSDKEAYYGNQGAFRCLVEKGDVAFVPHTVVFENTDGKNPAVWAKNLKSEDFELLCLDGSRAPVSNYKSCKLSGIPPPAIVTREESISDVVRIVANQQSLYGRKGFEKDMFQLFSSNKGNNLLFNDNTQCLITFDRQPKDIMEDYFGKPYYTTVYGASRSAMSSELISACTIKHC
B1: the “[…]G (kcal mol^−1) relative to RcSxph” value in data set [1] ([…]G = RT ln (Kd(XSxph)/Kd(RcSxph))) was found to be 0 kcal/mol. In data set [1], the “[…]G (kcal mol^−1) relative to wild-type RcSxph” value amounted to 0 kcal/mol. Moreover, the “Effective Rescue Ratio50 (ERR50)” value with PtNaV1.4 turned out to be 1.07±0.02. Further, the “DTm ([…]Tm=TmSxph+20 μM toxin−TmSxph), STX” value in data set [2] was determined as 3.6 °C. In addition, in data set [3], the “[…]G” value is -12.3 ± 0.5 kcal/mol; the “[…]H (kcal mol^−1), binding enthalpy” value was -16.1 ± 0.2 kcal/mol; the “[…]S (cal mol^−1 K^−1)” value is −12.7 ± 0.9 cal mol^−1 K^−1. Further, in data set [3] (listed as RcSxph WT), the “[…]H (kcal mol^−1), binding enthalpy” value was -16.1 ± 0.2 kcal/mol.

B2: P727A: RcSxph mutant P727A (protein)
chain: MAPTFQTALFFTIISLSFAAPNAKQVRWCAISDLEQKKCNDLVGSCNVPDITLVCVLRSSTEDCMTAIKDGQADAMFLDSGEVYEASKDPYNLKPIIAEPYSSNRDLQKCLKERQQALAKKMIGHYIPQCDEKGNYQPQQCHGSTGHCWCVNAMGEKISGTNTPPGQTRATCERHELPKCLKERQVALGGDEKVLGRFVPQCDEKGNYEPQQFHGSTGYSWCVNAIGEEIAGTKTPPGKIPATCQKHDLVTTCHYAVAMVKKSSAFQFNQLKGKRSCHSGVSKTDGWKALVTVLVEKKLLSWDGPAKESIQRAMSKFFSVSCIPGATQTNLCKQCKGEEGKNCKNSHDEPYYGNYGAFRCLKEDMGDVAFLRSTALSDEHSEVYELLCPDNTRKPLNKYKECNLGTVPAGTVVTRKISDKTEDINNFLMEAQKRQCKLFSSAHGKDLMFDDSTLQLALLSSEVDAFLYLGVKLFHAMKALTGDAHLPSKNKVRWCTINKLEKMKCDDWSAVSGGAIACTEASCPKGCVKQILKGEADAVKLEVQYMYEALMCGLLPAVEEYHNKDDFGPCKTPGSPYTDFGTLRAVALVKKSNKDINWNNIKGKKSCHTGVGDIAGWVIPVSLIRRQNDNSDIDSFFGESCAPGSDTKSNLCKLCIGDPKNSAANTKCSLSDKEAYYGNQGAFRCLVEKGDVAFVPHTVVFENTDGKNPAVWAKNLKSEDFELLCLDGSRAPVSNYKSCKLSGIPAPAIVTREESISDVVRIVANQQSLYGRKGFEKDMFQLFSSNKGNNLLFNDNTQCLITFDRQPKDIMEDYFGKPYYTTVYGASRSAMSSELISACTIKHC
Consider B2, for which the “[…]G (kcal mol^−1) relative to wild-type RcSxph” value in data set [1] amounted to 1.21 kcal/mol. Moreover, in the data set with PtNaV1.4, the “Effective Rescue Ratio50 (ERR50)” value is on record as > 4. In data set [3], the “[…]G” value was -10.3 ± 0.2 kcal/mol; the “[…]H (kcal mol^−1), binding enthalpy” value was -11.5 ± 0.0 kcal/mol; the “[…]S (cal mol^−1 K^−1)” value is −4.2 ± 0.9 cal mol^−1 K^−1.

B3: E540A: RcSxph mutant E540A (protein)
chain: MAPTFQTALFFTIISLSFAAPNAKQVRWCAISDLEQKKCNDLVGSCNVPDITLVCVLRSSTEDCMTAIKDGQADAMFLDSGEVYEASKDPYNLKPIIAEPYSSNRDLQKCLKERQQALAKKMIGHYIPQCDEKGNYQPQQCHGSTGHCWCVNAMGEKISGTNTPPGQTRATCERHELPKCLKERQVALGGDEKVLGRFVPQCDEKGNYEPQQFHGSTGYSWCVNAIGEEIAGTKTPPGKIPATCQKHDLVTTCHYAVAMVKKSSAFQFNQLKGKRSCHSGVSKTDGWKALVTVLVEKKLLSWDGPAKESIQRAMSKFFSVSCIPGATQTNLCKQCKGEEGKNCKNSHDEPYYGNYGAFRCLKEDMGDVAFLRSTALSDEHSEVYELLCPDNTRKPLNKYKECNLGTVPAGTVVTRKISDKTEDINNFLMEAQKRQCKLFSSAHGKDLMFDDSTLQLALLSSEVDAFLYLGVKLFHAMKALTGDAHLPSKNKVRWCTINKLEKMKCDDWSAVSGGAIACTEASCPKGCVKQILKGEADAVKLEVQYMYEALMCGLLPAVAEYHNKDDFGPCKTPGSPYTDFGTLRAVALVKKSNKDINWNNIKGKKSCHTGVGDIAGWVIPVSLIRRQNDNSDIDSFFGESCAPGSDTKSNLCKLCIGDPKNSAANTKCSLSDKEAYYGNQGAFRCLVEKGDVAFVPHTVVFENTDGKNPAVWAKNLKSEDFELLCLDGSRAPVSNYKSCKLSGIPPPAIVTREESISDVVRIVANQQSLYGRKGFEKDMFQLFSSNKGNNLLFNDNTQCLITFDRQPKDIMEDYFGKPYYTTVYGASRSAMSSELISACTIKHC
For B3, in data set [1], the “[…]G (kcal mol^−1) relative to wild-type RcSxph” value came out at 4.52 kcal/mol. The “Effective Rescue Ratio50 (ERR50)” value in the data set with PtNaV1.4 was “eliminated”. In data set [2], the “DTm ([…]Tm=TmSxph+20 μM toxin−TmSxph), STX” value is listed as “complete loss of the thermal shift”.

B4: I782A: RcSxph mutant, alanine for isoleucine at position 782 (protein)
chain: MAPTFQTALFFTIISLSFAAPNAKQVRWCAISDLEQKKCNDLVGSCNVPDITLVCVLRSSTEDCMTAIKDGQADAMFLDSGEVYEASKDPYNLKPIIAEPYSSNRDLQKCLKERQQALAKKMIGHYIPQCDEKGNYQPQQCHGSTGHCWCVNAMGEKISGTNTPPGQTRATCERHELPKCLKERQVALGGDEKVLGRFVPQCDEKGNYEPQQFHGSTGYSWCVNAIGEEIAGTKTPPGKIPATCQKHDLVTTCHYAVAMVKKSSAFQFNQLKGKRSCHSGVSKTDGWKALVTVLVEKKLLSWDGPAKESIQRAMSKFFSVSCIPGATQTNLCKQCKGEEGKNCKNSHDEPYYGNYGAFRCLKEDMGDVAFLRSTALSDEHSEVYELLCPDNTRKPLNKYKECNLGTVPAGTVVTRKISDKTEDINNFLMEAQKRQCKLFSSAHGKDLMFDDSTLQLALLSSEVDAFLYLGVKLFHAMKALTGDAHLPSKNKVRWCTINKLEKMKCDDWSAVSGGAIACTEASCPKGCVKQILKGEADAVKLEVQYMYEALMCGLLPAVEEYHNKDDFGPCKTPGSPYTDFGTLRAVALVKKSNKDINWNNIKGKKSCHTGVGDIAGWVIPVSLIRRQNDNSDIDSFFGESCAPGSDTKSNLCKLCIGDPKNSAANTKCSLSDKEAYYGNQGAFRCLVEKGDVAFVPHTVVFENTDGKNPAVWAKNLKSEDFELLCLDGSRAPVSNYKSCKLSGIPPPAIVTREESISDVVRIVANQQSLYGRKGFEKDMFQLFSSNKGNNLLFNDNTQCLATFDRQPKDIMEDYFGKPYYTTVYGASRSAMSSELISACTIKHC
For B4, in data set [1], the “[…]G (kcal mol^−1) relative to wild-type RcSxph” value was -0.53 kcal/mol. For the same molecule, in the data set on PtNaV1.4, the “Effective Rescue Ratio50 (ERR50)” value turned out to be 0.87±0.02. Also, the “DTm ([…]Tm=TmSxph+20 μM toxin−TmSxph), STX” value in data set [2] is reported as “DTm increases relative to wild-type”.
